Source: paper PMC3193169 (BMC Biotechnology, 2011)
Several values for one entry are separate records, joined by “and”; a condition that tells them apart may be missing. Equal entries are not always repeated.

Tests used:
Conditions in all cases: both partners purified
[1] = molecular target: Staphylococcus aureus enterotoxin B (SEB) toxin (Staphylococcus aureus, strain , UniProt P01552); assay: SPR
[2] = molecular target: staphylococcal enterotoxin D (SED) (Staphylococcus aureus, strain , UniProt P20723); assay: Luminex fluid array direct binding assay
[3] = molecular target: staphylococcal enterotoxin A (SEA) (Staphylococcus aureus, strain , UniProt P0A0L2); assay: Luminex fluid array direct binding assay
Shiga Toxin 1 (STX-1) = Shiga Toxin 1 (STX-1) (Stx1 (phage H30 of Escherichia coli), …, UniProt P10149;P69178); assay: Luminex fluid array direct binding assay
Chain of Shiga Toxin 1 (STX-1) (P10149 23-315, chain 1 of 2): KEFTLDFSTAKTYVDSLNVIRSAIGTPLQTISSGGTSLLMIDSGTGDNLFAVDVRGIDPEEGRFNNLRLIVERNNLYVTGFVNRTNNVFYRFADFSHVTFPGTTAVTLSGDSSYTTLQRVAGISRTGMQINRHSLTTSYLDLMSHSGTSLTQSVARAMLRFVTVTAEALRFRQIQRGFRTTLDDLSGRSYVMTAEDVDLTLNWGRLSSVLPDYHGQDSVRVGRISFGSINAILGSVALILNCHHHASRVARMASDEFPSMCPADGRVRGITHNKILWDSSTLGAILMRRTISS
Chain of Shiga Toxin 1 (STX-1) (P69178 21-89, chain 2 of 2): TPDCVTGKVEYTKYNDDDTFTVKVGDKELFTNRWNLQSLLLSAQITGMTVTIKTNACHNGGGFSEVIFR

B1: anti-SEB single domain antibody (sdAb) A3 (VHH)
VHH: EVQLVESGGGLVQAGDSLRLSCTASGRTFSRAVMGWFRQAPGKEREFVAAISAAPGTAYYAFYADSVRGRFSISADSAKNTVYLQMNSLKPEDTAVYYCAADLKMQVAAYMNQRSVDYWGQGTQVTVSS
[1]
  koff: 6e-05 s⁻¹ and 2.2e-05 s⁻¹
  kon: 100000 M⁻¹ s⁻¹ and 290000 M⁻¹ s⁻¹

B2: biotinylated sdAb A3 (VHH)
VHH: B1 VHH
[2]
  binding result: no binding
[3]
  binding result: no binding
Shiga Toxin 1 (STX-1)
  binding result: no binding
[1]
  Kd: 0.39 nM
  koff: 2.8e-05 s⁻¹
  kon: 72000 M⁻¹ s⁻¹
